The values that follow come from patent publication EP1230261B1 (LUDWIG INSTITUTE FOR CANCER RESEARCH, dated 2008).

In test [1] the target is T1, HLA-A*0201 molecules on T2 cells (CEMX721.174.T2) (human). Kind of test: cell-based or functional assay.
Test [2] has as its target T1, HLA-A*0201 molecules on T2 cells …. Nature of the test: cell-based or functional assay. The source holds these as a separate data set.
For test [3] the target is unchanged. Nature of the test: functional competition assay.

B1: peptide SLLMWIAQA (SEQ ID NO:26) (peptide)
peptide: SLLMWIAQA
With B1, in test [1], the “Competitor activity [mM] 50%” value is 0.0002 mM and the “Relative competitor activity to SEQ ID NO:2” value was 1350 relative to SEQ ID NO:2.

B2: peptide SLLMWITAA (SEQ ID NO:27) (peptide)
peptide: SLLMWITAA
With B2, in test [1], the “Competitor activity [mM] 50%” value stood at 0.00018 mM and the “Relative competitor activity to SEQ ID NO:2” value is 1500 relative to SEQ ID NO:2.

B3: peptide SLAMWITQA (SEQ ID NO:22) (peptide)
peptide: SLAMWITQA
With B3, in test [1], the “Competitor activity [mM] 50%” value was found to be 0.001 mM and the “Relative competitor activity to SEQ ID NO:2” value is 270 relative to SEQ ID NO:2.

B4: NY-ESO-1 157-167 peptide SLLMWITQCFL (SEQ ID NO:1) (peptide)
peptide: SLLMWITQCFL
With B4, the “Relative competitor activity (inhibition of CTL lysis of T2 cells given SEQ ID NO:4)” value in test [2] is 0.04 relative to FluMA 58-66 (SEQ ID NO:5). For the same molecule, in test [1], the “Competitor activity [mM] 50%” value was determined as 0.02 mM and the “Relative competitor activity to SEQ ID NO:2” value was 13 relative to SEQ ID NO:2.

B5: NY-ESO-1 155-163 peptide QLSLLMWIT (SEQ ID NO:3) (peptide)
peptide: QLSLLMWIT
On to B5, for which the “Relative competitor activity (inhibition of CTL lysis of T2 cells given SEQ ID NO:4)” value in test [2] is 0.01 relative to FluMA 58-66 (SEQ ID NO:5). In test [1], the “Competitor activity [mM] 50%” value is 0.03 mM and the “Relative competitor activity to SEQ ID NO:2” value is 9 relative to SEQ ID NO:2.

B6: peptide ALLMWITQA (SEQ ID NO:20) (peptide)
peptide: ALLMWITQA
In the case of B6, in test [1], the “Competitor activity [mM] 50%” value was found to be 0.0013 mM and the “Relative competitor activity to SEQ ID NO:2” value was 208 relative to SEQ ID NO:2.

B7: NY-ESO-1 157-C165L peptide SLLMWITQL (SEQ ID NO:7) (peptide)
peptide: SLLMWITQL
On to B7, for which, in test [2], the “Relative competitor activity (inhibition of CTL lysis of T2 cells given SEQ ID NO:4)” value is 0.5 relative to FluMA 58-66 (SEQ ID NO:5). Further, in test [1], the “Competitor activity [mM] 50%” value came out at 0.002 mM and the “Relative competitor activity to SEQ ID NO:2” value is 130 relative to SEQ ID NO:2.

B8: NY-ESO-1 157-C165V peptide SLLMWITQV (SEQ ID NO:8) (peptide)
peptide: SLLMWITQV
For B8, the “Competitor activity [mM] 50%” value in test [1] is 6e-05 mM.

B9: peptide SALMWITQA (SEQ ID NO:21) (peptide)
peptide: SALMWITQA
Take B9: the “fold reduction in peptide binding (against the base peptide SEQ ID NO:6)” value in test [3] was determined as 100 fold. Further, in test [1], the “Competitor activity [mM] 50%” value was 0.01 mM and the “Relative competitor activity to SEQ ID NO:2” value was 27 relative to SEQ ID NO:2.

B10: peptide SLLAWITQA (SEQ ID NO:23) (peptide)
peptide: SLLAWITQA
With B10, in test [1], the “Competitor activity [mM] 50%” value is below 0.0001 mM and the “Relative competitor activity to SEQ ID NO:2” value was > 2700 relative to SEQ ID NO:2.

B11: peptide SLLMWITQS (SEQ ID NO:19) (peptide)
peptide: SLLMWITQS
In the case of B11, in test [1], the “Competitor activity [mM] 50%” value came out at 0.02 mM and the “Relative competitor activity to SEQ ID NO:2” value was 13 relative to SEQ ID NO:2.

B12: peptide SLLMAITQA (SEQ ID NO:24) (peptide)
peptide: SLLMAITQA
On to B12, for which, in test [1], the “Competitor activity [mM] 50%” value was found to be 0.004 mM and the “Relative competitor activity to SEQ ID NO:2” value was 68 relative to SEQ ID NO:2.

B13: peptide SLLMWATQA (SEQ ID NO:25) (peptide)
peptide: SLLMWATQA
With B13, in test [1], the “Competitor activity [mM] 50%” value was 0.01 mM and the “Relative competitor activity to SEQ ID NO:2” value is 27 relative to SEQ ID NO:2.
